Results taken from publication PMC3834829, “A signature motif mediating selective interactions of BCL11A with the NR2E/F subfamily of orphan nuclear receptors” (Nucleic Acids Research, 2013).

B1: AAD-COUP-TFII-LBD-(144–414) [not stated] / LexA-COUP-TFII-LBD-(144–414) [not stated] (parent)
chain 1: MRREAVQRGRMPPTQPTHGQFALTNGDPLNCHSYLSGYISLLLRAEPYPTSRFGSQCMQPNNIMGIENICELAARMLFSAVEWARNIPFFPDLQITDQVALLRLTWSELFVLNAAQCSMPLHVAPLLAAAGLHASPMSADRVVAFMDHIRIFQEQVEKLKALHVDSAEYSCLKAIVLFTSDACGLSDVAHVESLQEKSQCALEEYVRSQYPNQPTRFGKLLLRLPSLRTVSSSVIEQLFFVRLVGKTPIETLIRDMLLSGSSFNWPYMAIQ
chain 2: B1 chain 1

Variants of: B1
Assay: yeast two-hybrid
Details: with LexA-COUP-TFII-LBD-(144–414);; read off a plot

Variant	response [nmol/mg/min]
chain 1 F78A	410
chain 1 R103A	470

Now from value to variant:

response [nmol/mg/min]	Variant
460	chain 1 V99A
500	chain 1 I95A
390	chain 1 R85A
